In patent US8648039B2, “Use of alpha-lactalbumin for regulations of glycemia” (Compagnie Laitiere Europeene, priority 2006, dated 2014):

Key:
[1] = system: male rats of the Wistar Hannover strain; assay: Postprandial glycemia with glutathione synthesis inhibited by buthionine sulfoximine; assay type: in vivo; details: buthionine sulfoximine injected one hour before the meal; acute
Description: In order to confirm the role of glutathione in the regulation of glycemia and the advantage of α-lactalbumin as a cysteine source from the viewpoint of synthesis of this compound, we used a glutathione-depleted rat model, by inhibiting the synthesis of this compound with buthionine sulfoximine treatment. In these animals, glucose tolerance and insulin sensitivity were measured, and also various parameters related to the oxidative stress state. The replenishing of glutathione stores and the change in the regulation of glycemia were measured in response to diets with various levels of enrichment in α-lactalbumin and cysteine supplementation.
The methodology of example 2, limited to the acute part of the study, was repeated. Four groups of 10 male rats of the Wistar Hannover strain were operated on, after their reception, in order to put in place a venous catheter. This catheter is introduced via the left jugular, descended to the level of the vena cava, and its proximal part interconnects at the cranial level, where it is secured in place so as to allow blood samples to be taken, in the desired amount, from a conscious animal.
One week later, the rats were divided up into 4 groups subjected to the sucrose-rich normal protein meals C0, C1, C2 and alphalac. An injection of buthionine sulfoximine, a […], was given beforehand (one hour before the meal). […]

[2] = system: IRS1 (insulin receptor substrate 1) protein; assay: Activation of the insulin signaling pathway (IRS1 immunoprecipitation, Western blotting) at 6 weeks; assay type: in vivo, male rats of the Wistar Hannover strain; details: muscle; 6 weeks of diet
Description: Four groups of 8 male rats of the Wistar Hannover strain were subjected for 6 weeks to the same sucrose-containing diets as those used in experiments 2 and 3 (P14 containing sucrose, C1, C2 and alphalac). An additional group of 8 rats, this being a non-sucrose control group, fed with a diet P14 containing 14 energy % of total milk proteins without sucrose, was added. This group constitutes the “normal” or “healthy” positive control in the evaluation of the insulin signaling pathway modifications related to the high-sucrose diet.
At 6 weeks, the anesthetized rats receive a dose of 0.750 mU.kg^−1 of insulin, directly injected into the vena cava. This injection makes it possible to light up the insulin signaling pathway and to evaluate the differences in activation between the various groups. 5 min after the injection, the muscle and the liver are removed, ground in a lysis buffer and directly immunoprecipitated with an antibody which recognizes the IRS1 (insulin receptor substrate 1) protein. The immunoprecipitated samples are then loaded onto a gel and then blotted onto a membrane (Western blotting technique). The membranes are successively hybridized with an antiphosphotyrosine antibody (tyrosine phosphorylation of the IRS protein is the first step in the insulin signaling pathway) and then an anti-total IRS1 antibody (FIG. 10).

B1: α-lactalbumin (protein, UniProt P00711 20-142, looked up)
Alpha-lactalbumin: EQLTKCEVFRELKDLKGYGGVSLPEWVCTTFHTSGYDTQAIVQNNDSTEYGLFQINNKIWCKDDQNPHSSNICNISCDKFLDDDLTDDIMCVKKILDKVGINYWLAHKALCSEKLDQWLCEKL
notes: milk serum protein; bovine form 14.2 kD, 123 amino acids
influence of inhibition of glutathione synthesis on the effect on postprandial glycemia [1]: does not modify
expression of the IRS protein [2]: attenuated
